Data set [1] deals with T1, TUT1_ΔN (form-II crystal) (Homo sapiens, UniProt Q9H6E5, DEL235-304/C372A/C399A/C415A/C501A/C504S/C574A/DEL651-750).
T1 construct: gene TUT1; palm, fingers and KA-1 domains; residues 1-140, 235-304 and 651-750 removed; cysteine mutations (order of the two mutation sets read as form-I, form-II); pET22b His tag, E. coli
T1 sequence (Q9H6E5 with tags, fused parts or gaps DEL235-304/C372A/C399A/C415A/C501A/C504S/C574A/DEL651-750): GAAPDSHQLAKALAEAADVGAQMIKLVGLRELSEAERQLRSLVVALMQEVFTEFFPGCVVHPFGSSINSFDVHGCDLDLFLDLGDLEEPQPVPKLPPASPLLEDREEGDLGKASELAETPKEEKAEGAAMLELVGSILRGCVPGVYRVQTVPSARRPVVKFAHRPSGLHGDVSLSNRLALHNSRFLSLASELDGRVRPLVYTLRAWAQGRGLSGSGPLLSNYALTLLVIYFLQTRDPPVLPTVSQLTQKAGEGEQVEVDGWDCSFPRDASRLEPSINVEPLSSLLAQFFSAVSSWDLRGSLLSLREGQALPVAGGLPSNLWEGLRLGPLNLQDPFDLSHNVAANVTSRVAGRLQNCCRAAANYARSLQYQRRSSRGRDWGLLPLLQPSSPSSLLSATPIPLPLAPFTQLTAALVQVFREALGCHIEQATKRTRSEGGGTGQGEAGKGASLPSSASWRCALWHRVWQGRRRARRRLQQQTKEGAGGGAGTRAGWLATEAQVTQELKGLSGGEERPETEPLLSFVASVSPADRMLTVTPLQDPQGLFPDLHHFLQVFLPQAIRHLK
Nature of the data set: X-ray crystal structure (soak), […] Å. To be noted: Mg2+; 10 mM ATP, 20 mM MgCl2; incoming nucleotide site. Format: binding.

A further data set concerns the target T2, TUT1_ΔN (form-I crystal) (Homo sapiens, UniProt Q9H6E5, DEL235-304/C372A/C415A/C501A/C504S/DEL651-750).
T2 construct: gene TUT1; palm, fingers and KA-1 domains; residues 1-140, 235-304 and 651-750 removed; cysteine mutations (order of the two mutation sets read as form-I, form-II); pET22b His tag, E. coli
T2 sequence (Q9H6E5 with tags, fused parts or gaps DEL235-304/C372A/C415A/C501A/C504S/DEL651-750): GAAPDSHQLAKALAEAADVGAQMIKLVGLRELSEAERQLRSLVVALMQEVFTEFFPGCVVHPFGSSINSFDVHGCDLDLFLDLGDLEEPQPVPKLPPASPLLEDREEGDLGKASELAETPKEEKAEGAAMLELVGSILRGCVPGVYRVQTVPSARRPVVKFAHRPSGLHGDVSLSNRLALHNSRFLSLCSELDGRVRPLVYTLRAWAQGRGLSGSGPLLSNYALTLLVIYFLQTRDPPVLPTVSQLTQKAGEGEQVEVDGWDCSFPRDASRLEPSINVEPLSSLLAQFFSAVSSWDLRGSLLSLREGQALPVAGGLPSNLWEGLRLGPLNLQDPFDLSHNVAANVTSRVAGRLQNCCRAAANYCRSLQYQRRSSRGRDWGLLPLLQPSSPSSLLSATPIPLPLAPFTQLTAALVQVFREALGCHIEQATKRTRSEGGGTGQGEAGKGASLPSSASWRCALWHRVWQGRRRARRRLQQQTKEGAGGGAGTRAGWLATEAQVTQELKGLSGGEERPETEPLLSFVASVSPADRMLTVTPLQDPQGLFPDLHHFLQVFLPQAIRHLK
The experiment in a line: X-ray crystal structure (soak), […] Å. The data set is classed as binding. Particulars: Ba2+; 2 mM UTP, 4 mM BaCl2; incoming nucleotide site.

Data set [2] deals with T1, TUT1_ΔN (form-II crystal). Nature of the data set: X-ray crystal structure (soak), […] Å. Particulars: Mg2+; 2 mM UTP, 4 mM MgCl2; incoming nucleotide site. Format: binding.
Substrate in data set [3]: O=c1ccn([C@@H]2O[C@H](COP(=O)(O)OP(=O)(O)OP(=O)(O)O)[C@@H](O)[C@H]2O)c(=O)[nH]1
Nature of the data set: purified protein. Format: biochemical, Homo sapiens. Particulars: co-substrate 1 μM U6 snRNA-u4, 10 mM MgCl2, 100 mM NaCl, pH 8.5, 37 °C.

Substrate in data set [4]: Nc1ncnc2c1ncn2[C@@H]1O[C@H](COP(=O)(O)OP(=O)(O)OP(=O)(O)O)[C@@H](O)[C@H]1O
Nature of the data set: purified protein. Format: biochemical, Homo sapiens. Particulars: co-substrate 1 μM U6 snRNA-u4, 10 mM MgCl2, 100 mM NaCl, pH 8.5, 37 °C.

Take `Nc1ncnc2c1ncn2[C@@H]1O[C@H](COP(=O)(O)OP(=O)(O)OP(=O)(O)O)[C@@H](O)[C@H]1O` [ATP]: in data set [1], the “X-ray crystal structure (soak), 2.8 Å” value was “form-II TUT1_ΔN with UTP and ATP soaked in were also analysed”.
For `O=c1ccn([C@@H]2O[C@H](COP(=O)(O)OP(=O)(O)OP(=O)(O)O)[C@@H](O)[C@H]2O)c(=O)[nH]1` [UTP], the “X-ray crystal structure (soak), 2.95 Å” value on TUT1_ΔN (form-I crystal) is reported as “The form-I TUT1_ΔN structure complexed with UTP (soaked in) was initially solved”. The “X-ray crystal structure (soak), 2.7 Å” value in data set [2] was “form-II TUT1_ΔN with UTP and ATP soaked in were also analysed”.

B1: human TUT1 (full-length, wild-type) (Homo sapiens) (protein)
chain: MAAVDSDVESLPRGGFRCCLCHVTTANRPSLDAHLGGRKHRHLVELRAARKAQGLRSVFVSGFPRDVDSAQLSEYFLAFGPVASVVMDKDKGVFAIVEMGDVGAREAVLSQSQHSLGGHRLRVRPREQKEFQSPASKSPKGAAPDSHQLAKALAEAADVGAQMIKLVGLRELSEAERQLRSLVVALMQEVFTEFFPGCVVHPFGSSINSFDVHGCDLDLFLDLGDLEEPQPVPKAPESPSLDSALASPLDPQALACTPASPPDSQPPASPQDSEALDFETPSSSLAPQTPDSALASETLASPQSLPPASPLLEDREEGDLGKASELAETPKEEKAEGAAMLELVGSILRGCVPGVYRVQTVPSARRPVVKFCHRPSGLHGDVSLSNRLALHNSRFLSLCSELDGRVRPLVYTLRCWAQGRGLSGSGPLLSNYALTLLVIYFLQTRDPPVLPTVSQLTQKAGEGEQVEVDGWDCSFPRDASRLEPSINVEPLSSLLAQFFSCVSCWDLRGSLLSLREGQALPVAGGLPSNLWEGLRLGPLNLQDPFDLSHNVAANVTSRVAGRLQNCCRAAANYCRSLQYQRRSSRGRDWGLLPLLQPSSPSSLLSATPIPLPLAPFTQLTAALVQVFREALGCHIEQATKRTRSEGGGTGESSQGGTSKRLKVDGQKNCCEEGKEEQQGCAGDGGEDRVEEMVIEVGEMVQDWAMQSPGQPGDLPLTTGKHGAPGEEGQPSHAALAERGPKGHEAAQEWSQGEAGKGASLPSSASWRCALWHRVWQGRRRARRRLQQQTKEGAGGGAGTRAGWLATEAQVTQELKGLSGGEERPETEPLLSFVASVSPADRMLTVTPLQDPQGLFPDLHHFLQVFLPQAIRHLK
notes: full-length 1-874, synthetic codon-optimised gene, pET22b (His tag, no cleavage told), E. coli BL21(DE3), Ni-NTA/heparin/Superdex 200
The Km is the substrate concentration at which the rate is half of its maximum. B1: in “purified protein [3]”, the Km stood at 59 µM and the kcat is 0.059 s^–1. In “purified protein [4]”, the Michaelis constant (Km) was 1,380 μM and the kcat is on record as 0.002 s^–1.

The values above are taken from article PMC5467268, “Crystal structures of U6 snRNA-specific terminal uridylyltransferase” (Nature Communications, 2017).
